According to PMC12055985:

Biological target: gH/gL expressed on the surface of CHO-K1 cells (UniProt P89445)
Assay: ELISA

gH/gL expressed on the surface of CHO-K1 cells, sequence (P89445 19-838, chain 1 of 2): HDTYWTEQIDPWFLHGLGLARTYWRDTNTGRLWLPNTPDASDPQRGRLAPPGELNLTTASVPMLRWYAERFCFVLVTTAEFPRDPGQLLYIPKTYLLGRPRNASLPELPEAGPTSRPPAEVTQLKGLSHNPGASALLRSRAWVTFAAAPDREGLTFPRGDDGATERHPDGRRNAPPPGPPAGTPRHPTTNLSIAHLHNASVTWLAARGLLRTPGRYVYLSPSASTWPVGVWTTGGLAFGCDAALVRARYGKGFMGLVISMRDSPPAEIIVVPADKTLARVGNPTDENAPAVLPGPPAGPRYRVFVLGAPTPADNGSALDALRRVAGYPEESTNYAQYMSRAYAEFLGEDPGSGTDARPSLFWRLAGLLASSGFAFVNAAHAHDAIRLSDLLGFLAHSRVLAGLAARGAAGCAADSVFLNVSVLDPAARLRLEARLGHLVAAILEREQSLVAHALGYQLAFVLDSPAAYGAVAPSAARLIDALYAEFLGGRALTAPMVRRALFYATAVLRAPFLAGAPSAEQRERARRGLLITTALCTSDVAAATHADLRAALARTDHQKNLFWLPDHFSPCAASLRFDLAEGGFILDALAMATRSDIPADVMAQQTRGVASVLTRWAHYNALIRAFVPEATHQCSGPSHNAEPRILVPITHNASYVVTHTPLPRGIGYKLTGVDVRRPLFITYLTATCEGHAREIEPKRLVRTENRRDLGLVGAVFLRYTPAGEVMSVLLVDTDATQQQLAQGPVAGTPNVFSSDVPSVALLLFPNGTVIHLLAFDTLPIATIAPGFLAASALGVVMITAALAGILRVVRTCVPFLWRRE
gH/gL expressed on the surface of CHO-K1 cells, sequence (P28278 17-224, chain 2 of 2, further chain): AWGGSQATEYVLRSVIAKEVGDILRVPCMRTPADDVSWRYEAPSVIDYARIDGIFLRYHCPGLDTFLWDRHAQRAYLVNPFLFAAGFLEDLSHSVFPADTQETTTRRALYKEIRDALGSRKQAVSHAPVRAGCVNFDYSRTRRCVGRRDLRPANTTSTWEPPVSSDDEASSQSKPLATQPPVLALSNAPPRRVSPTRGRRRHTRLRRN

## HSV-2 gD (aa1-275) with C-terminal His tag (domain or fragment)
  EC50: 1280 nM
